Three molecules from article PMC10397247 can be followed below.

Holding throughout (assay): two-hybrid library CCNG1;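 further: natural log of median RNA to DNA barcode read ratio; higher means stronger binding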
In assay [1] the target is T1, 4H2473-bA.
T1 chain: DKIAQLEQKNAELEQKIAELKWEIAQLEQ

In assay [2] the target is T2, 4H2503-bA.
T2 chain: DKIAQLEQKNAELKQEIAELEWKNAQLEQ

Assay [3] addresses T3, 4H2588-bA.
T3 chain: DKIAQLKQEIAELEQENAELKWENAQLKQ

In assay [4] the target is T4, 4H2692-bA.
T4 chain: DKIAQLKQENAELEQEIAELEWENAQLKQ

The target of assay [5] is T5, 4H2717-bA.
T5 chain: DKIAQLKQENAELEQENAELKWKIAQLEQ

For assay [6], the target named is T6, 4H2839-bA.
T6 chain: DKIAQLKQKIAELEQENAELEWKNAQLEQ

Assay [7] addresses T7, 4H2915-bA.
T7 chain: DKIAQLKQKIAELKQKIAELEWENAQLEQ

Assay [8] concerns the target T8, 4H3057-bA.
T8 chain: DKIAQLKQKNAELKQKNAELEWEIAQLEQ

Assay [9] addresses T9, 4H319-bA.
T9 chain: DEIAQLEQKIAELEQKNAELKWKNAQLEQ

Assay [10] concerns the target T10, 4H3277-bA.
T10 chain: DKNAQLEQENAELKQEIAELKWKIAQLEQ

The target of assay [11] is T11, 4H348-bA.
T11 chain: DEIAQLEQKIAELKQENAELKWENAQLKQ

For assay [12], the target named is T12, 4H40-bA.
T12 chain: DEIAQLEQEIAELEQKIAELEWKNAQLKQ

Assay [13] concerns the target T13, 4H477-bA.
T13 chain: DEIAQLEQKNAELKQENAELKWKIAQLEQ

Assay [14] addresses T14, 4H492-bA.
T14 chain: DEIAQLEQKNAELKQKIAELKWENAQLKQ

For assay [15], the target named is T15, 4H741-bA.
T15 chain: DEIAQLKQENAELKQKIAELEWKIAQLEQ

Assay [16] has as its target T16, P11A-bS.
T16 chain: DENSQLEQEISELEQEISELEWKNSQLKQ

For assay [17], the target named is T17, O12-bN.
T17 chain: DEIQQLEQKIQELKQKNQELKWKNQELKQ

Assay [18] deals with T18, O13-bN.
T18 chain: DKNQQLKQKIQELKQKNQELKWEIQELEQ

The target in assay [19] is T19, O14-bN.
T19 chain: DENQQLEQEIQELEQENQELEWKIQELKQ

Assay [20] concerns the target T20, O15-bN.
T20 chain: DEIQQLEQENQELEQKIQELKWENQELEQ

Assay [21] addresses T21, O16-bN.
T21 chain: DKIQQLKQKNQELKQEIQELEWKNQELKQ

Assay [22] deals with T22, O2-bN.
T22 chain: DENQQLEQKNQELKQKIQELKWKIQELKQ

Assay [23] has as its target T23, O3-bN.
T23 chain: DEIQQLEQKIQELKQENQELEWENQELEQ

Assay [24] deals with T24, O4-bN.
T24 chain: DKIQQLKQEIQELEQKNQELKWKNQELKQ

Assay [25] has as its target T25, O5-bN.
T25 chain: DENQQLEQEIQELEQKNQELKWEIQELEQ

For assay [26], the target named is T26, O6-bN.
T26 chain: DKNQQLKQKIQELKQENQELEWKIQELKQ

Assay [27] addresses T27, O7-bN.
T27 chain: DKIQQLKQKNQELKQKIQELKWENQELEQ

Assay [28] has as its target T28, O8-bN.
T28 chain: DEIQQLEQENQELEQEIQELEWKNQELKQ

The target in assay [29] is T29, O9-bN.
T29 chain: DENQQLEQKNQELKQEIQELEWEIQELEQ

Assay [30] addresses T30, 4H2568-bH.
T30 chain: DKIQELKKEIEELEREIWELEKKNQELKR

For assay [31], the target named is T31, 4H2619-bH.
T31 chain: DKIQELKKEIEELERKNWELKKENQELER

Assay [32] addresses T32, 4H2745-bH.
T32 chain: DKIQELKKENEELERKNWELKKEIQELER

Assay [33] has as its target T33, 4H3189-bA.
T33 chain: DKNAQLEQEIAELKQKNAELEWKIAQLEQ

Assay [34] deals with T34, 4H344-bH.
T34 chain: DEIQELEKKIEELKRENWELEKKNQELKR

The target of assay [35] is T35, 4H363-bH.
T35 chain: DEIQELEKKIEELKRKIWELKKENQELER

Assay [36] concerns the target T36, 4H3907-bH.
T36 chain: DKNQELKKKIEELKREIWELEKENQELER

The target in assay [37] is T37, 4H3961-bH.
T37 chain: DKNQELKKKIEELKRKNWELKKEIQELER

Assay [38] addresses T38, 4H470-bH.
T38 chain: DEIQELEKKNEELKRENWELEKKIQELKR

B1: 4H2473-bA (peptide)
chain: DKIAQLEQKNAELEQKIAELKWEIAQLEQ
Take B1: the interaction score is 0.144 in assay [1]; 0.82 in assay [2]; -1.02 in assay [3]; 0.426 in assay [4]; -0.42 in assay [5]; -0.648 in assay [6]. The interaction score is 0.904 in assay [7]; 0.511 in assay [8]; -0.981 in [9]; -1.53 in assay [10]; -1.44 in assay [11]; -0.325 in [12]. Further, the interaction score is -0.946 in assay [13], -1.09 in assay [14], -1.42 in assay [15] and -0.676 in assay [16].

B2: O12-bN (peptide)
chain: DEIQQLEQKIQELKQKNQELKWKNQELKQ
For B2, the interaction score in assay [17] was -0.0253; in assay [18], -0.316; in assay [19] it was -0.704; in assay [20], -0.511; in [21], -0.487; in assay [22] it was -0.846. Moreover, the interaction score is 0.565 in assay [23]; -0.33 in [24]; -2.82 in [25]; 0.155 in assay [26]; -0.201 in [27]; 0.0745 in assay [28]. In assay [29], this molecule had an interaction score of -0.349.

B3: 4H2568-bH (peptide)
chain: DKIQELKKEIEELEREIWELEKKNQELKR
On to B3, for which the interaction score in assay [30] is 2.17; in assay [31], 1.65; in [32], -0.189; in assay [33], 0.615; in [34] it was 0.802; in [35] it was 1.72. For the same molecule, the values for the interaction score in assay [36], in [37] and in assay [38] were 1.31, 2.42 and -1.26, respectively.
